This passage reports abundance fitness results from the Human Domainome abundance scans (Beltran et al. 2025).

± gives the uncertainty stated by the source.

Sequences and labels used below:
B1: Tripartite motif-containing protein 49C, residues 87 to 133; numbered along this chain, P0CI26 (parent)
chain: SSEEQMCGTHRETKKIFCEVDRSLLCLLCSSSQEHRYHRHRPIEWAA

The variants in the data set derive from B1. In words: abundance fitness (aPCA) (normalised: wild type 0, dead -1); higher = more abundant; growth selection in yeast, the domain comes from the species named. The conditions noted are these: Homo sapiens.
SSEEQMCGTHRETKKIFCEVDISLLCLLCSSSQEHRYHRHRPIEWAA: the abundance fitness is -0.588 ± 0.23. The value for SSEEQMCGTHRETKKIFCEVDQSLLCLLCSSSQEHRYHRHRPIEWAA was 0.117 ± 0.15; that for SSEEQMCGTHRETKKIFCAVDRSLLCLLCSSSQEHRYHRHRPIEWAA was -0.498 ± 0.11; that for SSEEQMCGTHRETKKIFCHVDRSLLCLLCSSSQEHRYHRHRPIEWAA was -0.944 ± 0.22. For the variant SSEEQMCGTHRETKKIFCGVDRSLLCLLCSSSQEHRYHRHRPIEWAA, the abundance fitness was -0.619 ± 0.098.

As to SSEEQMCGTHRETKKIFCEVDRSLLCLLCSSSQEHQYHRHRPIEWAA, the abundance fitness is -0.199 ± 0.12. The value for SSEEQMCGTHRETKKIFCEVDRSLLCLLCSSSQEHHYHRHRPIEWAA was 0.064 ± 0.15.

In the case of SSEEQMCGTHRETKKIWCEVDRSLLCLLCSSSQEHRYHRHRPIEWAA, the abundance fitness came out at 0.089 ± 0.12. The value for SSEEQMCGTHRETKKIRCEVDRSLLCLLCSSSQEHRYHRHRPIEWAA was -0.356 ± 0.093; that for SSEEQMCGTHRETKKIFCEVDRSLLCLLCSSSQEPRYHRHRPIEWAA was -0.676 ± 0.14. Under SSEEQMCGTHRETKKIFCEVDRSLLCLLCSSSQECRYHRHRPIEWAA stands -0.636 ± 0.12; under SSEEQMCGTHRETKKIFCEVDRSLLCLLCSSSQEHRYHRHRPKEWAA, 0.352 ± 0.27. Under SSEEQMCGTHRETKKIFCEVDRSLLCLLCSSSQEHRYHRHRPTEWAA stands -0.54 ± 0.4.

For the variant SSEEQMCGTLRETKKIFCEVDRSLLCLLCSSSQEHRYHRHRPIEWAA, the abundance fitness is -0.256 ± 0.1. The value for SSEEQMCGTHRETKKIFCEVPRSLLCLLCSSSQEHRYHRHRPIEWAA was -1.02 ± 0.17. Under SSEEQMCGTHRETKKIFCEVQRSLLCLLCSSSQEHRYHRHRPIEWAA stands 0.104 ± 0.1; under SSEEQMCGTHRETKKIFCEVWRSLLCLLCSSSQEHRYHRHRPIEWAA, -0.198 ± 0.098; under SSEEQMCGTHRETKKIFCEVYRSLLCLLCSSSQEHRYHRHRPIEWAA, -0.084 ± 0.19. The value for SSEEQMCGTHRETKKIFCEVDRSLLCLLCSSHQEHRYHRHRPIEWAA was -0.483 ± 0.22; that for SSEEQMCGTHRETKKIFCEVDRSLLCLLCSSVQEHRYHRHRPIEWAA was -0.301 ± 0.11; that for SSEEQMCGTHRETKKIFCEVDRSLLCLLCSSNQEHRYHRHRPIEWAA was -0.134 ± 0.25. Consider SSEEQMCGTHRETKKIFCEVDRSLLCLLCSSCQEHRYHRHRPIEWAA, for which the abundance fitness is -0.414 ± 0.16.

As for SSEEQMCGTHRETKKIFCEVDRSLLCLQCSSSQEHRYHRHRPIEWAA, the abundance fitness was determined as 0.274 ± 0.13. In the case of SSEEQMCGTHRETKKIFCEVDRSLLCLNCSSSQEHRYHRHRPIEWAA, the abundance fitness was 0.075 ± 0.12. Under SSEEQMCGTHRETKKIFCEVDRSLLCLPCSSSQEHRYHRHRPIEWAA stands -0.095 ± 0.14. Under SSEEQMCGTHIETKKIFCEVDRSLLCLLCSSSQEHRYHRHRPIEWAA stands -0.398 ± 0.23; under SSEEQMCGTHYETKKIFCEVDRSLLCLLCSSSQEHRYHRHRPIEWAA, -1.07 ± 0.36.

Consider SSEEQMCGTHRETFKIFCEVDRSLLCLLCSSSQEHRYHRHRPIEWAA, for which the abundance fitness is -0.811 ± 0.23.

Consider SSEEQMCGTHRETSKIFCEVDRSLLCLLCSSSQEHRYHRHRPIEWAA, for which the abundance fitness was -0.708 ± 0.1.

Regarding SSEEQMCGTHRETKKIFEEVDRSLLCLLCSSSQEHRYHRHRPIEWAA, the abundance fitness was -0.333 ± 0.23.

Turning to SSIEQMCGTHRETKKIFCEVDRSLLCLLCSSSQEHRYHRHRPIEWAA, the abundance fitness was -0.492 ± 0.22. Under SSEEQMCGTHREQKKIFCEVDRSLLCLLCSSSQEHRYHRHRPIEWAA stands 0.148 ± 0.13; under SSEEQMCGTHRETKKMFCEVDRSLLCLLCSSSQEHRYHRHRPIEWAA, -0.107 ± 0.1. Under SSEEQMCGTHRETKKHFCEVDRSLLCLLCSSSQEHRYHRHRPIEWAA stands -0.557 ± 0.3; under SSEEQMCGTHRETKKPFCEVDRSLLCLLCSSSQEHRYHRHRPIEWAA, -0.574 ± 0.13. With SSEEQMCGTHRETKKAFCEVDRSLLCLLCSSSQEHRYHRHRPIEWAA, the abundance fitness is -0.703 ± 0.12.

Turning to SSEEQMCGTHRETKKLFCEVDRSLLCLLCSSSQEHRYHRHRPIEWAA, the abundance fitness is -0.372 ± 0.091.

Take SSEEQMCGTHRETKKIFCEVDRSLLCLLCSSSQEHRYHRHGPIEWAA: the abundance fitness was -0.34 ± 0.12. Under SSEEQMCGTHRETKKIFCEVDRSLLCLLCSSSQEHRYHRHKPIEWAA stands -0.402 ± 0.47; under SSEEQMCGTHRETKKIFCEVDRSLLCLLCSSSQEHRYHRHMPIEWAA, -0.39 ± 0.17. As for SSEEQMCGTHRETKKIFCEVDRSLLCLLCSSSQEHRYHRHTPIEWAA, the abundance fitness was -0.292 ± 0.16.

Regarding SSEEQMCTTHRETKKIFCEVDRSLLCLLCSSSQEHRYHRHRPIEWAA, the abundance fitness was -0.042 ± 0.11. Under SSEEQMCGTHRGTKKIFCEVDRSLLCLLCSSSQEHRYHRHRPIEWAA stands -0.01 ± 0.076; under SSEEQMCGTHRNTKKIFCEVDRSLLCLLCSSSQEHRYHRHRPIEWAA, -0.797 ± 0.27. Under SSEEQMCGTHRTTKKIFCEVDRSLLCLLCSSSQEHRYHRHRPIEWAA stands 0.047 ± 0.097; under SSEEQMCGTHRDTKKIFCEVDRSLLCLLCSSSQEHRYHRHRPIEWAA, 0.077 ± 0.12. As to SSEEQMCGTHRATKKIFCEVDRSLLCLLCSSSQEHRYHRHRPIEWAA, the abundance fitness amounted to 0.113 ± 0.09. Under SSEEQMCGTHRETKKIFCEVDRSLLCLLCSSSQEHRDHRHRPIEWAA stands 0.176 ± 0.11; under SSEEQMCGTHRETKWIFCEVDRSLLCLLCSSSQEHRYHRHRPIEWAA, -0.668 ± 0.12; under SSEEQMCGTHRETKKIFCEVDRSLLCLLCSSSQEHRYYRHRPIEWAA, -0.711 ± 0.14. The value for SSEEQMCGTHRETKKIFCEVDRSLLCLLCGSSQEHRYHRHRPIEWAA was -0.319 ± 0.097; that for CSEEQMCGTHRETKKIFCEVDRSLLCLLCSSSQEHRYHRHRPIEWAA was -0.79 ± 0.26; that for LSEEQMCGTHRETKKIFCEVDRSLLCLLCSSSQEHRYHRHRPIEWAA was -0.156 ± 0.15.

For the variant SSEEQMCGTHRETKKIFCEDDRSLLCLLCSSSQEHRYHRHRPIEWAA, the abundance fitness amounted to 0.164 ± 0.1. The value for SSEEQMCGTHRETKKIFCENDRSLLCLLCSSSQEHRYHRHRPIEWAA was -0.014 ± 0.082.
